The target of the assay is T1, C3b (human).
T1 construct: human complement C3, beta chain, as in C3b; human complement C3, alpha' chain of C3b (alpha chain without C3a); Mr 176,000 used; also called soluble C3b; fluid phase C3b
Kind of assay: SPR; His-tagged rH fragment held on a Ni-charged NTA chip (BIAcore X or 3000; 500-1,000 RU, reloaded for each injection), C3 protein injected in HBS-P (10 mM HEPES pH 7.4, 150 mM NaCl, 0.005% P20) at 5 μL/min, 25°C; reference cell with nickel only; equilibrium levels fitted to a one-site equation. The note with it: both partners purified.

B1: recombinant Factor H fragment rH 6-15 (domain or fragment)
chain: PCDYPDIKHGGLYHENMRRPYFPVAVGKYYSYYCDEHFETPSGSYWDHIHCTQDGWSPAVPCLRKCYFPYLENGYNQNYGRKFVQGKSIDVACHPGYALPKAQTTVTCMENGWSPTPRCIRVKTCSKSSIDIENGFISESQYTYALKEKAKYQCKLGYVTADGETSGSITCGKDGWSAQPTCIKSCDIPVFMNARTKNDFTWFKLNDTLDYECHDGYESNTGSTTGSIVCGYNGWSDLPICYERECELPKIDVHLVPDRKKDQYKVGEVLKFSCKPGFTIVGPNSVQCYHFGLSPDLPICKEQVQSCGPPPELLNGNVKEKTKEEYGHSEVVEYYCNPRFLMKGPNKIQCVDGEWTTLPVCIVEESTCGDIPELEHGWAQLSSPPYYYGDSVEFNCSESFTMIGHRSITCIHGVWTQLPQCVAIDKLKKCKSSNLIILEEHLKNKKEFDHNSNIRYRCRGKEGWIHTVCINGRWDPEVNCSMAQIQLCPPPPQIPNSHNMTTTLNYRDGEKVSVLCQENYLIQEGEEITCKDGRWQSIPLCVEKIPCSQPPQIEHGTINSSRSSQESYAHGTKLSYTCEGGFRISEENETTCYMGKWSSPPQCEG
modifications: Limits from Sushi 6 start to Sushi 15 end (928 by convention, as the candidate feature list is cut off after Sushi 12). Residue 402 is set to Tyr as printed (Y402 variant), whichever allele the entry
For B1, binding was characterised by a dissociation constant (Kd) of 15 µM.

The values above are taken from paper PMC7417313, “Characterization of Binding Properties of Individual Functional Sites of Human Complement Factor H” (Frontiers in Immunology, 2020).
